Experimental data: paper PMC3237458, “PEGylation Potentiates the Effectiveness of an Antagonistic Peptide That Targets the EphB4 Receptor with Nanomolar Affinity” (PLoS ONE, 2011)

Target: EphB4 Fc (UniProt P54761)
Sequence (P54761 16-539): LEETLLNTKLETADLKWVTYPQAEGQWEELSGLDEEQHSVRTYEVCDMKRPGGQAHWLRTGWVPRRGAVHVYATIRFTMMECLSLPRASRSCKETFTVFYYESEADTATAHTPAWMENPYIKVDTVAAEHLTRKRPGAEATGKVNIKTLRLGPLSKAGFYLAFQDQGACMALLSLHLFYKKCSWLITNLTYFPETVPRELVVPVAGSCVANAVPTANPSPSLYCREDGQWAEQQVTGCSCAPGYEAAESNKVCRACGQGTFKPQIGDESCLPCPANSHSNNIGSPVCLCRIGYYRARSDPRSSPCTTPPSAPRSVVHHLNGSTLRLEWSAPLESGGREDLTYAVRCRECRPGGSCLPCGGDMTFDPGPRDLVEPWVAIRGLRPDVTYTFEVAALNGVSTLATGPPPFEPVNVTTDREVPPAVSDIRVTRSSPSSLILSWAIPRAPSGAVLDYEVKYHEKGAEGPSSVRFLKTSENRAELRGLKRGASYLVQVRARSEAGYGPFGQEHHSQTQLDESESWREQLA

Substance: PEGylated TNYL-RAW (PEG-TNYL-RAW) (peptide)
- inhibition of ephrin-B2 Fc-induced tyrosine phosphorylation of endogenous EphB4 in B16 melanoma cells (blocks EphB4 with ephrin-B2); 2 µM peptide reduce phosphorylation to undetectable levels: 90 nM
